Sequences and labels used below:
B1: ATL3 (parent)
chain: HFKKTKKMGGKDFSFRYQQELEEE
B2: TSPAN10 (parent)
chain: EGCGPPLRRWLRANLAASGGYAIA
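Note: lentivirally expressed fusions sorted by FACS into six bins by GFP to DsRed ratio, PSI derived from sequencing read proportions per bin multiplied by bin number.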

Variants of B1 are the subject of the first data set. The data set can be described thus: protein stability index of a GFP-peptide fusion (GPS, HEK-293T) (PSI 1-6); higher = more stable. As to conditions: c terminus: a fixed tail appended.
Turning to HFKKLKKMGGKDFSFRYQQELEEE, the protein stability index amounted to 2.53. On the same count and under the same terms, the result for HFKKGKKMGGKDFSFRYQQELEEE reads 1.35; that for HFKKTKKMVGKDFSFRYQQELEEE, 1.82.

As for HFKKTKKMLGKDFSFRYQQELEEE, the protein stability index stood at 2.26. Same read-out and setting: then HFKKTKKMRGKDFSFRYQQELEEE, with 1.77. Turning to HFKKTKKMIGKDFSFRYQQELEEE, the protein stability index came out at 2.48. As for HFKKTKKMYGKDFSFRYQQELEEE, the protein stability index stood at 1.74. Same read-out and setting: the result for HFKKTKKMPGKDFSFRYQQELEEE reads 2.05. Same read-out and setting: then HFKKTKKMFGKDFSFRYQQELEEE, with 2.64. The same measure, in the same setting: the result for HFKKTKKMNGKDFSFRYQQELEEE reads 1.99; that for HFKKTKKMHGKDFSFRYQQELEEE, 1.84. As for HFKKTKKMMGKDFSFRYQQELEEE, the protein stability index was determined as 1.28. Still for that read-out and setting: the result for HFKKTKKMCGKDFSFRYQQELEEE reads 2.61; that for HFKKTKKMQGKDFSFRYQQELEEE, 1.96; that for HFKKTKKMKGKDFSFRYQQELEEE, 2.7.

For HFKKTKKMWGKDFSFRYQQELEEE, the protein stability index was 1.88. Same read-out and setting: then HFKKTKKMTGKDFSFRYQQELEEE, with 2.11; and HFKKTKKMEGKDFSFRYQQELEEE, with 1.77; and HFKKTKKMAGKDFSFRYQQELEEE, with 1.41. Still for that read-out and setting: then HFKKTKKMSGKDFSFRYQQELEEE, with 1.75; and HFKKTKKMDGKDFSFRYQQELEEE, with 2.23. On the same count and under the same terms, the result for HFFKTKKMGGKDFSFRYQQELEEE reads 2.41; that for HFIKTKKMGGKDFSFRYQQELEEE, 1.89; that for HFQKTKKMGGKDFSFRYQQELEEE, 3.21.

As to HFDKTKKMGGKDFSFRYQQELEEE, the protein stability index was determined as 2.34. Same read-out and setting: the result for HFNKTKKMGGKDFSFRYQQELEEE reads 2.18; that for HFWKTKKMGGKDFSFRYQQELEEE, 1.02. On the same count and under the same terms, then HFAKTKKMGGKDFSFRYQQELEEE, with 2.06. HFRKTKKMGGKDFSFRYQQELEEE: the protein stability index was 2.42. As to HFTKTKKMGGKDFSFRYQQELEEE, the protein stability index worked out at 1.04. On the same count and under the same terms, then HFVKTKKMGGKDFSFRYQQELEEE, with 2.4. For the variant HFSKTKKMGGKDFSFRYQQELEEE, the protein stability index was determined as 1.79. The same measure, in the same setting: then HFMKTKKMGGKDFSFRYQQELEEE, with 2.71; and HFGKTKKMGGKDFSFRYQQELEEE, with 1.86. Same read-out and setting: then HFHKTKKMGGKDFSFRYQQELEEE, with 1.73; and HFPKTKKMGGKDFSFRYQQELEEE, with 1.9. The same measure, in the same setting: the result for HFYKTKKMGGKDFSFRYQQELEEE reads 2.75; that for HFEKTKKMGGKDFSFRYQQELEEE, 1.43; that for HFLKTKKMGGKDFSFRYQQELEEE, 1.98.

As for HFKKTKKMGHKDFSFRYQQELEEE, the protein stability index turned out to be 2.19.

On to HFKKTKKMGPKDFSFRYQQELEEE, for which the protein stability index turned out to be 1.3. Same read-out and setting: the result for HFKKTKKMGMKDFSFRYQQELEEE reads 2.71.

For the variant HFKKTKKMGFKDFSFRYQQELEEE, the protein stability index was determined as 1.82. Same read-out and setting: then HFKKTKKMGDKDFSFRYQQELEEE, with 1.8.

As to HFKKTKKMGCKDFSFRYQQELEEE, the protein stability index came to 1.56. For the variant HFKKTKKMGEKDFSFRYQQELEEE, the protein stability index was found to be 5.39. The same measure, in the same setting: then HFKKTKKMGRKDFSFRYQQELEEE, with 2.03. The same measure, in the same setting: then HFKKTKKMGQKDFSFRYQQELEEE, with 1.86.

Turning to HFKKTKKMGIKDFSFRYQQELEEE, the protein stability index was determined as 1.68. Same read-out and setting: then HFKKTKKMGLKDFSFRYQQELEEE, with 2.07; and HFKKTKKMGAKDFSFRYQQELEEE, with 1.75. Take HFKKTKKMGKKDFSFRYQQELEEE: the protein stability index is 2.56.

As to HFKKTSKMGGKDFSFRYQQELEEE, the protein stability index worked out at 1.81. For the variant HFKKTQKMGGKDFSFRYQQELEEE, the protein stability index is 2.39.

Turning to HFKKTYKMGGKDFSFRYQQELEEE, the protein stability index amounted to 2.38. In the case of HFKKTIKMGGKDFSFRYQQELEEE, the protein stability index amounted to 1.37. The same measure, in the same setting: the result for HFKKTAKMGGKDFSFRYQQELEEE reads 2.4; that for HFKKTHKMGGKDFSFRYQQELEEE, 1.52. Take HFKKTCKMGGKDFSFRYQQELEEE: the protein stability index came to 2.15. On the same count and under the same terms, then HFKKTEKMGGKDFSFRYQQELEEE, with 2.1. The same measure, in the same setting: the result for HFKKTTKMGGKDFSFRYQQELEEE reads 1.96; that for HFKKTVKMGGKDFSFRYQQELEEE, 2.46. On the same count and under the same terms, then HFKKTPKMGGKDFSFRYQQELEEE, with 1.2; and HFKKTWKMGGKDFSFRYQQELEEE, with 1.51; and HFKKTNKMGGKDFSFRYQQELEEE, with 2.15.

As for HFKKTMKMGGKDFSFRYQQELEEE, the protein stability index is 2.51. Same read-out and setting: then HFKKTRKMGGKDFSFRYQQELEEE, with 1.99.

In the case of HFKKTFKMGGKDFSFRYQQELEEE, the protein stability index was 3.58.

A further data set covers variants of B2. The data set is described as above. As to conditions: c terminus: a fixed tail appended.
As for EGCGPPLRRWLRANLAASGGYAQA, the protein stability index was determined as 2.48. Same read-out and setting: then EGCGPPLRRWLRANLAASGGYAVA, with 2.11. Same read-out and setting: then EGCGPPLRRWLRANLAASGGYAYA, with 1.73; and EGCGPPLRRWLRANLAASGGYATA, with 2.53; and EGCGPPLRRWLRANLAASGGYASA, with 2.63. Still for that read-out and setting: the result for EGCGPPLRRWLRANLAASGGYAPA reads 2.45; that for EGCGPPLRRWLRANLAASGGYAWA, 1.59; that for EGCGPPLRRWLRANLAASGGYARA, 2.6.

In the case of EGCGPPLRRWLRANLAASGGYAIM, the protein stability index amounted to 1.93. Still for that read-out and setting: the result for EGCGPPLRRWLRANLAASGGYAIY reads 1.16; that for EGCGPPLRRWLRANLAASGGYAIN, 2.27. Take EGCGPPLRRWLRANLAASGGYAIC: the protein stability index came out at 2.02. On to EGCGPPLRRWLRANLAASGGYAIE, for which the protein stability index came to 2.92. On the same count and under the same terms, then EGCGPPLRRWLRANLAASGGYAID, with 2.42; and EGCGPPLRRWLRANLAASGGYAIF, with 1.48. As to EGCGPPLRRWLRANLAASGGYAIW, the protein stability index was 2.25. The same measure, in the same setting: the result for EGCGPPLRRWLRANLAASGGYAIR reads 2.12; that for EGCGPPLRRWLRANLAASGGYAII, 2.22. Same read-out and setting: the result for EGCGPPLRRWLRANLAASGGYAIS reads 1.98. Still for that read-out and setting: the result for EGCGPPLRRWLRANLAASGGYAIH reads 1.68; that for EGCGPPLRRWLRANLAASGGYAIL, 2.81; that for EGCGPPLRRWLRANLAASGGYAIQ, 2.6. With EGCGPPLRRWLRANLAASGGYAIT, the protein stability index came to 2.

Regarding EGCGPPLRRWLRANLAASGGYAIV, the protein stability index came out at 1.67. On the same count and under the same terms, then EGCGPPLRRWLRANLAASGGYAIG, with 1.65; and EGCGPPLRRWLRANLAASGGYAIK, with 2.15.
